{"source": "patent US20150306234", "tested_on": "T1, BDD FVIII mutein S2206C", "T1 sequence": "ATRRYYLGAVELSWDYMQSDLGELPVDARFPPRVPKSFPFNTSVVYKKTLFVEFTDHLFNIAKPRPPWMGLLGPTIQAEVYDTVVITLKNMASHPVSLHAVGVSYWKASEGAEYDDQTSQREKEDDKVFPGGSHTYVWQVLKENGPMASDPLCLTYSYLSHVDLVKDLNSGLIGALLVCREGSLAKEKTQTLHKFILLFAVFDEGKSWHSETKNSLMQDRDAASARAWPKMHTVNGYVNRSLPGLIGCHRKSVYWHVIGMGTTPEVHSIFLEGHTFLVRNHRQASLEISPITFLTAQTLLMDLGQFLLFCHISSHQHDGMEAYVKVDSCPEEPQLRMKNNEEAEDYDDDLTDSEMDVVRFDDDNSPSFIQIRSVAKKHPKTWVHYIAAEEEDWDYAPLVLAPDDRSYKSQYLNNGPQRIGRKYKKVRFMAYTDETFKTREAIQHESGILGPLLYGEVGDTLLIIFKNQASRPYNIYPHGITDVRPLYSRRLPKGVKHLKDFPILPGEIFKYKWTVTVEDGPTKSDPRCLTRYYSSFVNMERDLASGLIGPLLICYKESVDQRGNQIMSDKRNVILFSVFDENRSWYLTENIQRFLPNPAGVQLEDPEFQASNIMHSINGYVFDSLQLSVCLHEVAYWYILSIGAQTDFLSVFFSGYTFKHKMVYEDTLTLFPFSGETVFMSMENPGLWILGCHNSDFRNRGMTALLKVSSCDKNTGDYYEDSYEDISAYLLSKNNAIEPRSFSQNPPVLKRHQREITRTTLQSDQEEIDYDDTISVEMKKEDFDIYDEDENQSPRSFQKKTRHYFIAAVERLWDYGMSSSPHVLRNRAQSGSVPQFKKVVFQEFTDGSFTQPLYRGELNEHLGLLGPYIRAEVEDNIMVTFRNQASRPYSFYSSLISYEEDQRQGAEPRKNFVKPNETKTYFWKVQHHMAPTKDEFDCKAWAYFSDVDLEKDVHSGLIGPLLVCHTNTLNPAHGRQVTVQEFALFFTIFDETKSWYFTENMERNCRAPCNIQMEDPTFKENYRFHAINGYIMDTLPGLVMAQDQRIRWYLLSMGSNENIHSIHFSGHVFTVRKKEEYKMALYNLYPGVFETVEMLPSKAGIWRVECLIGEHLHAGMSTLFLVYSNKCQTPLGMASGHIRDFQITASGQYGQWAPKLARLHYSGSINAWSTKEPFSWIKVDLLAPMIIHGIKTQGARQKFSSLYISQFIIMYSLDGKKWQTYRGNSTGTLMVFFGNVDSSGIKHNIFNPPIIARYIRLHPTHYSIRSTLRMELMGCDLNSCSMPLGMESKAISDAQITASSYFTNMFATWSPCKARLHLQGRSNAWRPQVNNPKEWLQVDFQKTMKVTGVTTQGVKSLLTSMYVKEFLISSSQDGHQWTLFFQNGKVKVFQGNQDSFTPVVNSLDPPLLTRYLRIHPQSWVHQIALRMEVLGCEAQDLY"}
{"substance": "thrombin (Haematologic Technologies, Essex Junction, Vt.)", "values": [{"measurement": "thrombin cleavage, SDS-PAGE with silver staining", "result": "Thrombin digestion of the muteins and control produced the expected cleavage fragments."}]}
